The text below walks through data of US20240018502A1.

The assay deals with plasma purified human complement protein C3 (human) (UniProt P01024). Put plainly: cell-based or functional assay.
plasma purified human complement protein C3 (human), sequence (P01024 23-667, chain 1 of 2): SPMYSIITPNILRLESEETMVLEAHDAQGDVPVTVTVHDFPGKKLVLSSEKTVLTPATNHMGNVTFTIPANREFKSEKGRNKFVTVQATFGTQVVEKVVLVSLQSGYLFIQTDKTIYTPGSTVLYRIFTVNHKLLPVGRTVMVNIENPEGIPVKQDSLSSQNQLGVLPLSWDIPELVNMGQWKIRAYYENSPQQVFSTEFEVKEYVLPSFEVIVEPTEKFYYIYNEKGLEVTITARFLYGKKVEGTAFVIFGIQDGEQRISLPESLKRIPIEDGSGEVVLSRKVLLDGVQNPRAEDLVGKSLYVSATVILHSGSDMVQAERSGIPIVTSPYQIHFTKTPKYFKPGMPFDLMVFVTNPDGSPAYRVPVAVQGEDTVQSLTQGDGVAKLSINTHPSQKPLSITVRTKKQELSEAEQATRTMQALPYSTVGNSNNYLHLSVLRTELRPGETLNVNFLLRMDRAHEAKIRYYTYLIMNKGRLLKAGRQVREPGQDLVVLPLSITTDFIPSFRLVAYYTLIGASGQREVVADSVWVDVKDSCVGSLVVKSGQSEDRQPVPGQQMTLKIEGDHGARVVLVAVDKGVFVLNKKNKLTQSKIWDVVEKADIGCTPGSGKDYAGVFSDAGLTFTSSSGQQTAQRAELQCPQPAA
plasma purified human complement protein C3 (human), sequence (P01024 672-1663, chain 2 of 2): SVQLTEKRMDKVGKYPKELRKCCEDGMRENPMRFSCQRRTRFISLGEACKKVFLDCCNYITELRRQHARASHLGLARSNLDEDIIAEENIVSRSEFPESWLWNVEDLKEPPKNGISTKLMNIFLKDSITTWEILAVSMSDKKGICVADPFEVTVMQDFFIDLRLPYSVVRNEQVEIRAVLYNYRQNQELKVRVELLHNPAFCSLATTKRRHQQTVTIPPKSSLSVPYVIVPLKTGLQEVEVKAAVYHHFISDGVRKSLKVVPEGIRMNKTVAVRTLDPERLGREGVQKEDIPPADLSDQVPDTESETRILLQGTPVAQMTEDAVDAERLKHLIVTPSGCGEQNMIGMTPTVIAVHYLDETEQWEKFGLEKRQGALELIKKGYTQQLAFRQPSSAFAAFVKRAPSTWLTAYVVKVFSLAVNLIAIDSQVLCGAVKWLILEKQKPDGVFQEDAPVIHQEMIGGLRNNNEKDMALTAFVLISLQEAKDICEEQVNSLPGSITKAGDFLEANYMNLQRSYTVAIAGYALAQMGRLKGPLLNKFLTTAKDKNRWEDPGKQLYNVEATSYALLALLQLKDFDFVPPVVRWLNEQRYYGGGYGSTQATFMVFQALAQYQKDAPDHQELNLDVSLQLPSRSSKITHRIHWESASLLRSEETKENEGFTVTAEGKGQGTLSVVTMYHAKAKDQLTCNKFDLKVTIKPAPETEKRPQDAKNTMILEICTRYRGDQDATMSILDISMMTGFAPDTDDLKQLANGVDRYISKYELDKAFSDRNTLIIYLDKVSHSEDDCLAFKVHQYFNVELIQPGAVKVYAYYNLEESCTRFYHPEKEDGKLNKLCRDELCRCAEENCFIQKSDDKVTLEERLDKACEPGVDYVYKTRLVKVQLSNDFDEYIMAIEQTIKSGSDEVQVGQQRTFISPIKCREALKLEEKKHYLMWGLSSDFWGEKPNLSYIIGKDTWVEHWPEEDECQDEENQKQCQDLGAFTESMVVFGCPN

B1: MTSP-1 I41R/ins97aE/F97T/T98G/F99L/C122S/G151N/Q175L/Q192E (enzyme)
chain: VVGGTDADEGEWPWQVSLHALGQGHRCGASLISPNWLVSAAHCYIDDRGFRYSDPTQWTAFLGLHDQSQRSAPGVQERRLKRIISHPFFNDTEGLDYDIALLELEKPAEYSSMVRPISLPDASHVFPAGKAIWVTGWGHTQYGGTNALILQKGEIRVINQTTCENLLPQLITPRMMCVGFLSGGVDSCEGDSGGPLSSVEADGRIFQAGVVSWGDGCAQRNKPGVYTRLPLFRDWIKENTGV
For the molecule B1, the EC50 of hC3 cleavage was 311 nM.

B2: MTSP-1 I41R/ins97aE/F97T/T98G/F99L/C122S/Q175L/Q192E (enzyme)
chain: VVGGTDADEGEWPWQVSLHALGQGHRCGASLISPNWLVSAAHCYIDDRGFRYSDPTQWTAFLGLHDQSQRSAPGVQERRLKRIISHPFFNDTEGLDYDIALLELEKPAEYSSMVRPISLPDASHVFPAGKAIWVTGWGHTQYGGTGALILQKGEIRVINQTTCENLLPQLITPRMMCVGFLSGGVDSCEGDSGGPLSSVEADGRIFQAGVVSWGDGCAQRNKPGVYTRLPLFRDWIKENTGV
As for B2, the EC50 of hC3 cleavage is 523 nM.

B3: MTSP-1 I41R/F97T/ins97aE/T98G/F99L/C122S/G151E/Q175T/Q192E (enzyme)
chain: VVGGTDADEGEWPWQVSLHALGQGHRCGASLISPNWLVSAAHCYIDDRGFRYSDPTQWTAFLGLHDQSQRSAPGVQERRLKRIISHPFFNDTEGLDYDIALLELEKPAEYSSMVRPISLPDASHVFPAGKAIWVTGWGHTQYGGTEALILQKGEIRVINQTTCENLLPQTITPRMMCVGFLSGGVDSCEGDSGGPLSSVEADGRIFQAGVVSWGDGCAQRNKPGVYTRLPLFRDWIKENTGV
Molecule B3 gave an EC50 of hC3 cleavage of 363 nM.

B4: MTSP-1 I41R/F97T/ins97aE/T98G/F99L/C122S/G151N/Q175S/Q192E (enzyme)
chain: VVGGTDADEGEWPWQVSLHALGQGHRCGASLISPNWLVSAAHCYIDDRGFRYSDPTQWTAFLGLHDQSQRSAPGVQERRLKRIISHPFFNDTEGLDYDIALLELEKPAEYSSMVRPISLPDASHVFPAGKAIWVTGWGHTQYGGTNALILQKGEIRVINQTTCENLLPQSITPRMMCVGFLSGGVDSCEGDSGGPLSSVEADGRIFQAGVVSWGDGCAQRNKPGVYTRLPLFRDWIKENTGV
The molecule B4 returned an EC50 of hC3 cleavage of 267 nM.

B5: MTSP-1 I41R/ins97aE/F97T/T98G/F99L/C122S/G151N/Q175T/Q192D (enzyme)
chain: VVGGTDADEGEWPWQVSLHALGQGHRCGASLISPNWLVSAAHCYIDDRGFRYSDPTQWTAFLGLHDQSQRSAPGVQERRLKRIISHPFFNDTEGLDYDIALLELEKPAEYSSMVRPISLPDASHVFPAGKAIWVTGWGHTQYGGTNALILQKGEIRVINQTTCENLLPQTITPRMMCVGFLSGGVDSCDGDSGGPLSSVEADGRIFQAGVVSWGDGCAQRNKPGVYTRLPLFRDWIKENTGV
B5 had an EC50 of hC3 cleavage of 9990 nM.

B6: MTSP-1 I41R/ins97aE/F97T/T98G/F99L/C122S/G151N/Q175L/Q192D (enzyme)
chain: VVGGTDADEGEWPWQVSLHALGQGHRCGASLISPNWLVSAAHCYIDDRGFRYSDPTQWTAFLGLHDQSQRSAPGVQERRLKRIISHPFFNDTEGLDYDIALLELEKPAEYSSMVRPISLPDASHVFPAGKAIWVTGWGHTQYGGTNALILQKGEIRVINQTTCENLLPQLITPRMMCVGFLSGGVDSCDGDSGGPLSSVEADGRIFQAGVVSWGDGCAQRNKPGVYTRLPLFRDWIKENTGV
Turning to B6, the EC50 of hC3 cleavage was 622 nM.

B7: MTSP-1 I41R/ins97aE/F97T/T98G/F99L/C122S/G151N/Q175T/Q192E (enzyme)
chain: VVGGTDADEGEWPWQVSLHALGQGHRCGASLISPNWLVSAAHCYIDDRGFRYSDPTQWTAFLGLHDQSQRSAPGVQERRLKRIISHPFFNDTEGLDYDIALLELEKPAEYSSMVRPISLPDASHVFPAGKAIWVTGWGHTQYGGTNALILQKGEIRVINQTTCENLLPQTITPRMMCVGFLSGGVDSCEGDSGGPLSSVEADGRIFQAGVVSWGDGCAQRNKPGVYTRLPLFRDWIKENTGV
Take B7: the EC50 of hC3 cleavage came out at 1410 nM.

B8: MTSP-1 H40P/I41R/F99L/C122S/G151E/Q192G (enzyme)
chain: VVGGTDADEGEWPWQVSLHALGQGPRCGASLISPNWLVSAAHCYIDDRGFRYSDPTQWTAFLGLHDQSQRSAPGVQERRLKRIISHPFFNDFTLDYDIALLELEKPAEYSSMVRPISLPDASHVFPAGKAIWVTGWGHTQYGGTEALILQKGEIRVINQTTCENLLPQQITPRMMCVGFLSGGVDSCGGDSGGPLSSVEADGRIFQAGVVSWGDGCAQRNKPGVYTRLPLFRDWIKENTGV
In turn, B8 returned an EC50 of hC3 cleavage of 153 nM.
